Data: article PMC8805389, “High-level production of the agmatine in engineered Corynebacterium crenatum with the inhibition-releasing arginine decarboxylase” (Microbial Cell Factories, 2022)
Positions count from the first letter of the chain named. Numbers in names are those of the source.

B1: SpeA (Escherichia coli K-12) (protein)
chain: MSDDMSMGLPSSAGEHGVLRSMQEVAMSSQEASKMLRTYNIAWWGNNYYDVNELGHISVCPDPDVPEARVDLAQLVKTREAQGQRLPALFCFPQILQHRLRSINAAFKRARESYGYNGDYFLVYPIKVNQHRRVIESLIHSGEPLGLEAGSKAELMAVLAHAGMTRSVIVCNGYKDREYIRLALIGEKMGHKVYLVIEKMSEIAIVLDEAERLNVVPRLGVRARLASQGSGKWQSSGGEKSKFGLAATQVLQLVETLREAGRLDSLQLLHFHLGSQMANIRDIATGVRESARFYVELHKLGVNIQCFDVGGGLGVDYEGTRSQSDCSVNYGLNEYANNIIWAIGDACEENGLPHPTVITESGRAVTAHHTVLVSNIIGVERNEYTVPTAPAEDAPRALQSMWETWQEMHEPGTRRSLREWLHDSQMDLHDIHIGYSSGIFSLQERAWAEQLYLSMCHEVQKQLDPQNRAHRPIIDELQERMADKMYVNFSLFQSMPDAWGIDQLFPVLPLEGLDQVPERRAVLLDITCDSDGAIDHYIDGDGIATTMPMPEYDPENPPMLGFFMVGAYQEILGNMHNLFGDTEAVDVFVFPDGSVEVELSDEGDTVADMLQYVQLDPKTLLTQFRDQVKKTDLDAELQQQFLEEFEAGLYGYTYLEDE
B2: SpeA (Escherichia coli K-12; I534D) (protein)
chain: B1 chain with I534D
notes: C-terminal His-tag; expressed in E. coli BL21(DE3) from pXMJ19; HisTrap purified; tetramer (two dimers)
B3: SpeA (Escherichia coli K-12; I534S) (protein)
chain: B1 chain with I534S
notes: as for B2

Assays:
purified protein = substrate: N=C(N)NCCC[C@H](N)C(=O)O; test: purified protein; conditions: 50 mM Tris-HCl pH 8.0, 2.5 mM MgSO4, 0.6 mM PLP, 37 °C
[1] = substrate: N=C(N)NCCC[C@H](N)C(=O)O; test: arginine decarboxylase activity, agmatine by HPLC; type: biochemical, Escherichia coli; conditions: 50 mM Tris-HCl pH 8.0, 2.5 mM MgSO4, 0.6 mM PLP, 37 °C
Description: arginine decarboxylase activity, agmatine by HPLC on SpeA

| Protein | Km (purified protein) [µM] | kcat (purified protein) [s⁻¹] | kcat/Km (purified protein) [M⁻¹ s⁻¹] | Km [1] [µM] | kcat [1] [s⁻¹] | kcat/Km [1] [M⁻¹ s⁻¹] |
| --- | --- | --- | --- | --- | --- | --- |
| B1 | 602 ± 92 | 1.79 ± 0.135 | 2970 |  |  |  |
| B2 |  |  |  | 623 ± 75 | 2.64 ± 0.328 | 4240 |
| B3 |  |  |  | 691 ± 69 | 2.12 ± 0.206 | 3070 |
